The source of these data is the supplement of paper PMC9112550, “Optimization of the antimicrobial peptide Bac7 by deep mutational scanning” (BMC Biology, 2022).

This series concerns Escherichia coli TOP10. Kind of series: shrunken log2 fold change of peptide-encoding DNA abundance (4.5 h post-induction vs induction); higher = less antimicrobial activity (less host growth inhibition). The note with it: time post-induction: 4.5 h; library: site-saturation at positions 5, 18, 19, 20.
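Note: peptides expressed intracellularly from a pBAD plasmid library in pooled LB shake-flask culture, induced with 0.3% L-arabinose, DNA abundance read by NGS, three biological replicates, DESeq2 with apeglm shrinkage.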

Consider RRIRSRPPRLPRPRPRPDQRPRP, for which the “shrunken log2 fold change” value stood at 0.0901.
With RRIRLRPPRLPRPRPRPEWRPRP, the “shrunken log2 fold change” value is -0.0482.
With RRIRHRPPRLPRPRPRPHWQPRP the figure was -0.00133.
Take RRIRVRPPRLPRPRPRPEFKPRP: the “shrunken log2 fold change” value turned out to be 0.0262.
For RRIRIRPPRLPRPRPRPRAPPRP the value was 0.347.
For RRIRYRPPRLPRPRPRPTMEPRP the value was 0.0667; for RRIRKRPPRLPRPRPRPCNIPRP, -0.697.
For RRIRIRPPRLPRPRPRPEYCPRP the value was -0.125.
In the case of RRIRERPPRLPRPRPRPGDYPRP, the “shrunken log2 fold change” value is -0.0324.
Consider RRIRERPPRLPRPRPRPNLWPRP, for which the “shrunken log2 fold change” value was found to be 0.0252.
On to RRIRHRPPRLPRPRPRPHLRPRP, for which the “shrunken log2 fold change” value is -0.0385.
Take RRIRTRPPRLPRPRPRPMAAPRP: the “shrunken log2 fold change” value came out at 0.0975.
With RRIRCRPPRLPRPRPRPYEPPRP the figure was -0.151; with RRIRWRPPRLPRPRPRPRSAPRP, 0.294.
For RRIRQRPPRLPRPRPRPARPPRP the value was 0.516.
With RRIRNRPPRLPRPRPRPNPLPRP, the “shrunken log2 fold change” value stood at 0.0887.
With RRIRPRPPRLPRPRPRPNLAPRP the figure was 0.294; with RRIRHRPPRLPRPRPRPRPVPRP, 0.22; with RRIRCRPPRLPRPRPRPSYWPRP, -0.71.
In the case of RRIRFRPPRLPRPRPRPWHGPRP, the “shrunken log2 fold change” value was -0.151.
With RRIRFRPPRLPRPRPRPIMTPRP the figure was -0.368.
In the case of RRIRGRPPRLPRPRPRPKHWPRP, the “shrunken log2 fold change” value was found to be 0.646.
Regarding RRIRIRPPRLPRPRPRPCPLPRP, the “shrunken log2 fold change” value was -0.751.
For RRIRGRPPRLPRPRPRPTDDPRP the value was 1.01; for RRIRWRPPRLPRPRPRPIFTPRP, -0.173; for RRIRSRPPRLPRPRPRPNYGPRP, -0.0945.
With RRIRKRPPRLPRPRPRPGNDPRP the figure was 0.054.
With RRIRNRPPRLPRPRPRPQIRPRP the figure was -0.0373; with RRIRMRPPRLPRPRPRPKRRPRP, 1.02; with RRIRDRPPRLPRPRPRPIYCPRP, 0.0039.
As to RRIRRRPPRLPRPRPRPLQMPRP, the “shrunken log2 fold change” value was -0.133.
In the case of RRIRYRPPRLPRPRPRPLQMPRP, the “shrunken log2 fold change” value is -0.209.
As to RRIRVRPPRLPRPRPRPCEYPRP, the “shrunken log2 fold change” value was -0.00327.
Take RRIRGRPPRLPRPRPRPPEKPRP: the “shrunken log2 fold change” value came out at 1.64.
With RRIRCRPPRLPRPRPRPTSDPRP the figure was 0.129.
For the sequence RRIRERPPRLPRPRPRPDEHPRP, the “shrunken log2 fold change” value was -0.274.
Consider RRIRPRPPRLPRPRPRPQHTPRP, for which the “shrunken log2 fold change” value was 0.769.
RRIRIRPPRLPRPRPRPMEPPRP: the “shrunken log2 fold change” value was -0.101.
For the sequence RRIRGRPPRLPRPRPRPVCCPRP, the “shrunken log2 fold change” value was found to be 0.957.
Take RRIRHRPPRLPRPRPRPKPDPRP: the “shrunken log2 fold change” value was 0.0401.
For RRIRFRPPRLPRPRPRPALGPRP the value was 0.423.
RRIRSRPPRLPRPRPRPPGYPRP: the “shrunken log2 fold change” value was 0.0642.
For RRIRGRPPRLPRPRPRPPGFPRP the value was 0.484; for RRIRCRPPRLPRPRPRPDPEPRP, -0.0407.
As to RRIRARPPRLPRPRPRPWLTPRP, the “shrunken log2 fold change” value turned out to be 0.0459.
For RRIRARPPRLPRPRPRPNHNPRP the value was -0.542.
As for RRIRYRPPRLPRPRPRPKDRPRP, the “shrunken log2 fold change” value is -0.109.
For RRIRARPPRLPRPRPRPPPDPRP, the “shrunken log2 fold change” value is 1.18.
For RRIRFRPPRLPRPRPRPRCDPRP the value was 0.0576; for RRIRIRPPRLPRPRPRPCHQPRP, -0.245.
With RRIRTRPPRLPRPRPRPAPDPRP the figure was 0.15.
With RRIRTRPPRLPRPRPRPASYPRP the figure was -0.347; with RRIRDRPPRLPRPRPRPILPPRP, 0.0106; with RRIRMRPPRLPRPRPRPVVSPRP, 0.095.
Regarding RRIRTRPPRLPRPRPRPKVVPRP, the “shrunken log2 fold change” value turned out to be 2.37.
For RRIRFRPPRLPRPRPRPDSKPRP the value was -0.788; for RRIRLRPPRLPRPRPRPSKRPRP, -0.646; for RRIRQRPPRLPRPRPRPTFDPRP, 0.168.
On to RRIRVRPPRLPRPRPRPPYIPRP, for which the “shrunken log2 fold change” value is -0.28.
As to RRIRKRPPRLPRPRPRPPSSPRP, the “shrunken log2 fold change” value worked out at 0.263.
With RRIRNRPPRLPRPRPRPAMNPRP the figure was -0.000576.
For RRIRQRPPRLPRPRPRPALPPRP, the “shrunken log2 fold change” value came out at 0.397.
For RRIRRRPPRLPRPRPRPKVQPRP the value was -0.0356; for RRIRIRPPRLPRPRPRPMRRPRP, 0.0307.
For RRIRKRPPRLPRPRPRPYYSPRP the value was -0.373.
RRIRIRPPRLPRPRPRPKHVPRP: the “shrunken log2 fold change” value is -0.406.
With RRIRWRPPRLPRPRPRPFHHPRP the figure was -0.077; with RRIRPRPPRLPRPRPRPLQWPRP, -0.037; with RRIRARPPRLPRPRPRPIVQPRP, 0.0602.
For RRIRPRPPRLPRPRPRPHMIPRP the value was -0.98.
Consider RRIRSRPPRLPRPRPRPNLAPRP, for which the “shrunken log2 fold change” value was -0.14.
With RRIRPRPPRLPRPRPRPPLNPRP the figure was 0.275; with RRIRHRPPRLPRPRPRPARWPRP, 0.386.
As to RRIRLRPPRLPRPRPRPILMPRP, the “shrunken log2 fold change” value was 0.0581.
RRIRWRPPRLPRPRPRPVEMPRP: the “shrunken log2 fold change” value is 0.206.
Take RRIRERPPRLPRPRPRPVPQPRP: the “shrunken log2 fold change” value is -0.195.
With RRIRIRPPRLPRPRPRPVIWPRP the figure was 0.204.
For the sequence RRIRERPPRLPRPRPRPMVNPRP, the “shrunken log2 fold change” value is -0.0701.
Turning to RRIRERPPRLPRPRPRPHRSPRP, the “shrunken log2 fold change” value was -0.103.
With RRIRNRPPRLPRPRPRPMHRPRP the figure was -0.0926.
With RRIRLRPPRLPRPRPRPMKMPRP the figure was -0.409; with RRIRSRPPRLPRPRPRPDDCPRP, -0.0201; with RRIRRRPPRLPRPRPRPKNHPRP, -0.0297.
For RRIRMRPPRLPRPRPRPNTHPRP, the “shrunken log2 fold change” value stood at 0.136.
Take RRIRMRPPRLPRPRPRPWWEPRP: the “shrunken log2 fold change” value was -0.425.
For RRIRIRPPRLPRPRPRPRAGPRP the value was 1.6; for RRIRSRPPRLPRPRPRPLTTPRP, -0.127.
For RRIRTRPPRLPRPRPRPQIIPRP the value was -0.358.
For RRIRNRPPRLPRPRPRPNAHPRP the value was -0.456; for RRIRLRPPRLPRPRPRPSSIPRP, -0.245.
RRIRERPPRLPRPRPRPKWQPRP: the “shrunken log2 fold change” value is -0.0355.
As to RRIRLRPPRLPRPRPRPIMGPRP, the “shrunken log2 fold change” value was -0.0219.
For RRIRPRPPRLPRPRPRPCSWPRP the value was 0.0726; for RRIRIRPPRLPRPRPRPFSRPRP, -0.0685.
Turning to RRIRFRPPRLPRPRPRPWRHPRP, the “shrunken log2 fold change” value stood at 0.0222.
Regarding RRIRARPPRLPRPRPRPPMNPRP, the “shrunken log2 fold change” value came out at 0.134.
For RRIRYRPPRLPRPRPRPNHPPRP the value was -0.125; for RRIRMRPPRLPRPRPRPIFPPRP, 0.229.
For the sequence RRIRLRPPRLPRPRPRPVEDPRP, the “shrunken log2 fold change” value was determined as 0.0985.
For RRIRLRPPRLPRPRPRPAWTPRP, the “shrunken log2 fold change” value came to 0.218.
For RRIRTRPPRLPRPRPRPELIPRP the value was -0.0864; for RRIRGRPPRLPRPRPRPKSHPRP, 0.536; for RRIRPRPPRLPRPRPRPISRPRP, 0.121.
For RRIRLRPPRLPRPRPRPKVEPRP the value was -0.0879; for RRIRQRPPRLPRPRPRPPVRPRP, 0.739; for RRIRDRPPRLPRPRPRPWGGPRP, 0.422.
On to RRIRYRPPRLPRPRPRPHTWPRP, for which the “shrunken log2 fold change” value is -0.0877.
As to RRIRDRPPRLPRPRPRPASNPRP, the “shrunken log2 fold change” value is -0.15.
Turning to RRIRIRPPRLPRPRPRPFTWPRP, the “shrunken log2 fold change” value is -0.924.
As for RRIRLRPPRLPRPRPRPRIYPRP, the “shrunken log2 fold change” value was -0.636.
As for RRIRIRPPRLPRPRPRPLESPRP, the “shrunken log2 fold change” value is 0.0516.
For RRIRARPPRLPRPRPRPTLGPRP, the “shrunken log2 fold change” value worked out at 0.504.
RRIRSRPPRLPRPRPRPNIWPRP: the “shrunken log2 fold change” value was -0.0665.
With RRIRLRPPRLPRPRPRPENFPRP, the “shrunken log2 fold change” value came to 0.0173.
With RRIRARPPRLPRPRPRPCESPRP, the “shrunken log2 fold change” value came out at 0.214.
With RRIRYRPPRLPRPRPRPNRIPRP, the “shrunken log2 fold change” value is -0.815.
Take RRIRNRPPRLPRPRPRPPWEPRP: the “shrunken log2 fold change” value was -0.0446.
For RRIRHRPPRLPRPRPRPLKIPRP the value was -0.0842.
As for RRIRYRPPRLPRPRPRPWRIPRP, the “shrunken log2 fold change” value was -0.297.
As for RRIRKRPPRLPRPRPRPNEHPRP, the “shrunken log2 fold change” value was found to be 0.448.
For RRIRMRPPRLPRPRPRPCAYPRP the value was 0.227; for RRIRWRPPRLPRPRPRPYKTPRP, -0.0554.
For RRIRGRPPRLPRPRPRPICFPRP the value was 0.535; for RRIRSRPPRLPRPRPRPSEHPRP, -0.579; for RRIRKRPPRLPRPRPRPHRYPRP, 0.321.
